{
  "source": "paper PMC5025769",
  "about": "“A highly efficient sorbitol dehydrogenase from Gluconobacter oxydans G624 and improvement of its stability through immobilization” (Scientific Reports, 2016)",
  "key": {"[1]": {"target": "T1, PfMDH (mannitol dehydrogenase) (Pseudomonas fluorescens, UniProt O08355, K295Q)", "T1 construct": "gene mtlD", "T1 sequence (O08355 entry or part of it K295Q)": "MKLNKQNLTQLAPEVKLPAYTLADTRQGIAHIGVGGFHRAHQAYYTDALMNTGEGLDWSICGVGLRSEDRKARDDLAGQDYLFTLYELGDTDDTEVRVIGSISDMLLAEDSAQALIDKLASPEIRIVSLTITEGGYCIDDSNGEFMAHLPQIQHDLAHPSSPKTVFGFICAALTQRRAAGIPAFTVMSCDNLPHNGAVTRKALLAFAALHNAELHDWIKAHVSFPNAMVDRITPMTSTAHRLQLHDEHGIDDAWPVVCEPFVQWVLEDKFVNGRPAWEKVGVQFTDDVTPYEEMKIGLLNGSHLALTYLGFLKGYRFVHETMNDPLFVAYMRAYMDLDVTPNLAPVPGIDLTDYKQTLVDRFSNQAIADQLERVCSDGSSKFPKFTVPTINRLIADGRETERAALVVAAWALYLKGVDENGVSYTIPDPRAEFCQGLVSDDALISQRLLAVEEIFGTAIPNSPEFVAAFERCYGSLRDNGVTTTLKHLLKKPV", "assay": "isothermal titration calorimetry, […] °C", "assay_type": "binding"}, "[2]": {"target": "GoSLDH (sorbitol dehydrogenase) (Gluconobacter oxydans, UniProt Q9KWR5, K294Q)", "assay": "isothermal titration calorimetry, […] °C", "assay_type": "binding"}, "[3]": {"target": "T2, GoSLDH (sorbitol dehydrogenase) (Gluconobacter oxydans, UniProt Q9KWR5)", "T2 construct": "purified 6x His-tagged recombinant GoSLDH", "T2 sequence (Q9KWR5 1-485)": "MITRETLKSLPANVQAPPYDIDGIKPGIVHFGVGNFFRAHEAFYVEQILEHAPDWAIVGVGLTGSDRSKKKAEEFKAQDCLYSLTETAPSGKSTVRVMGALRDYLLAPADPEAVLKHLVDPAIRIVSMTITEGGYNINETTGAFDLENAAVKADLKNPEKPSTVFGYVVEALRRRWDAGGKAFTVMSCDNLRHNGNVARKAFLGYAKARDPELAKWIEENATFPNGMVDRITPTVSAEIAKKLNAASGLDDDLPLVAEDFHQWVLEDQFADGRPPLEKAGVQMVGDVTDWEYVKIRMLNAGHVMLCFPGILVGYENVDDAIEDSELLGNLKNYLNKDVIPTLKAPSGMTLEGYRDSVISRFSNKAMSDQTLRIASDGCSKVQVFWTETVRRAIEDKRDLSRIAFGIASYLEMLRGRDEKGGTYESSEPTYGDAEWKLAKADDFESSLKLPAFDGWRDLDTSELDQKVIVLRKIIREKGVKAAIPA", "assay": "substrate specificity assay at […]", "assay_type": "biochemical"}, "purified protein [4]": {"substrate": "NC(=O)c1ccc[n+]([C@@H]2O[C@H](COP(=O)(O)OP(=O)(O)OC[C@H]3O[C@@H](n4cnc5c(N)ncnc54)[C@H](OP(=O)(O)O)[C@@H]3O)[C@@H](O)[C@H]2O)c1", "assay": "purified protein", "conditions": "varied: cofactor"}, "purified protein [5]": {"substrate": "OC[C@@H](O)[C@@H](O)[C@H](O)[C@@H](O)CO", "assay": "purified protein", "assay_type": "biochemical, Gluconobacter oxydans", "conditions": "NADP^+"}, "[6]": {"target": "the molecule itself", "assay": "SEC; Bio-Sil SEC-250 column (300 x 7.8 mm) on HPLC; mobile phase pH 6.8, 50 mM Na2HPO4, 50 mM NaH2PO4, 50 mM NaCl, 10 mM NaN3; 1.0 mL/min; quaternary structure from comparison of molecular weights by HPLC and SDS-PAGE"}},
  "data": [
    {"molecule": "OC[C@@H](O)[C@@H](O)[C@H](O)[C@@H](O)CO", "note": "[D-sorbitol]", "values": [
      {"measurement": "Kd", "setting": "[1]", "result": 278, "unit": "µM"},
      {"measurement": "Kd", "setting": "[2]", "result": 96, "unit": "µM"}
    ]},
    {"molecule": "OC[C@@H](O)[C@@H](O)[C@H](O)[C@H](O)CO", "note": "[mannitol]", "values": [
      {"measurement": "substrate specificity assay at 200 mM", "setting": "[3]", "result": "GoSLDH is highly specific towards D-sorbitol, mannitol, and D-arabinitol (Table S2)"}
    ]},
    {"molecule": "sorbitol dehydrogenase (GoSLDH) from Gluconobacter oxydans G624 (enzyme, UniProt Q9KWR5 1-485, looked up, sorbitol dehydrogenase (SLDH) of Gluconobacter oxydans G624; complete 1455-bp codon-optimized gene; molecular mass 53.64 kDa by SDS-PAGE; The abstract speaks of the complete 1455-bp gene, the methods of 1.458 kb; also called recombinant GoSLDH; polyol-specific long-chain dehydrogenase from G. oxydans G624; source: E. coli BL21 (DE3)-CodonPlus RIL, pET-28(a), purified (Ni-NTA Superflow column)) MITRETLKSLPANVQAPPYDIDGIKPGIVHFGVGNFFRAHEAFYVEQILEHAPDWAIVGVGLTGSDRSKKKAEEFKAQDCLYSLTETAPSGKSTVRVMGALRDYLLAPADPEAVLKHLVDPAIRIVSMTITEGGYNINETTGAFDLENAAVKADLKNPEKPSTVFGYVVEALRRRWDAGGKAFTVMSCDNLRHNGNVARKAFLGYAKARDPELAKWIEENATFPNGMVDRITPTVSAEIAKKLNAASGLDDDLPLVAEDFHQWVLEDQFADGRPPLEKAGVQMVGDVTDWEYVKIRMLNAGHVMLCFPGILVGYENVDDAIEDSELLGNLKNYLNKDVIPTLKAPSGMTLEGYRDSVISRFSNKAMSDQTLRIASDGCSKVQVFWTETVRRAIEDKRDLSRIAFGIASYLEMLRGRDEKGGTYESSEPTYGDAEWKLAKADDFESSLKLPAFDGWRDLDTSELDQKVIVLRKIIREKGVKAAIPA", "values": [
      {"measurement": "Km", "setting": "purified protein [4]", "result": 0.0882, "unit": "mM"},
      {"measurement": "Km", "setting": "purified protein [5]", "result": 38.9, "unit": "mM"},
      {"measurement": "kcat", "setting": "purified protein [5]", "result": 3820, "unit": "s⁻¹"},
      {"measurement": "kcat/Km", "setting": "purified protein [5]", "result": 98100, "unit": "M⁻¹ s⁻¹"},
      {"measurement": "stoichiometry N", "setting": "[6]", "result": 2}
    ]}
  ]
}
